The values that follow come from US20260217846A1 (University of Texas, published 2026).

The chains are these.
B1: Clone 138 4-1BB antibody (IgG2b) (antibody, V domains shown)
VH: VQLQESGGGLVKPGGSLKLSCAASGFTFSDYGMHWVRQAPEKGLEWVAYISSGSNSIYYADTVTGRFTISRDNAKNTLFLQMTSLRSEDTAMYYCASNNGYFYFDYWGQGTTLTVSS
VL: IVITQSPAILSASPGEKVTMTCRASSSVSYMHWYQQKPGSSPKPWIYATSNLASGVPARFSGSGSGTSYSLTVSRVEAEDAATYYCQQWSSDPFTFGSGTKLEIK
notes: Mouse hybridoma antibody, IgG2b
B2: Clone 49A 4-1BB antibody (IgG1) (antibody, V domains shown)
VH: VKLQQSGPELVKPGASVKISCKASGYTFTDYYMNWVKESHGKSLEWIGDINPNNGGSTYYNQKFKGKATLTVEKSSSTAFMELRSLTSEDSAVYYCARSLYGSTYYFDYWGQGTPLTVSS
VL: DIVLTQSPASLAVSLGQRATISCKASQSVDYDGDSYMNWYQQKPGQPPKLLIYAASNLESGIPARFSGSGSGTDFTLNIHPVEEEDAGTYYCQQSNDDPWTFGGGTKLEIK
notes: Mouse hybridoma antibody, IgG1
B3: Clone 54 4-1BB antibody (IgG2a) (antibody, V domains shown)
VH: EFQLQQSGPELVKPGASVKISCKASGYSFTDYNMNWVKQSNGKSLEWIGVINPNYGTTSYNQKFKGKATFTVDQSSSTAYMQLNSLTSEDSAVYYCARSPVEDYFDYWGQGTTLTVSS
VL: ENVLTQSPAIMSASPGEKVTMTCRARSSVSSSYLHWYQQKSGASPKLWIYSTSNLASGVPARFSGSGSGTSYSLTISSVEAEDAATYYCQQYSGYPLITFGAGTKLELKR
notes: Mouse hybridoma antibody, IgG2a; also called Curranlumab; hybridoma clone 271-54 41-BB

For the assay, the target named is T1, recombinant human 4-1BB (human, UniProt Q07011 24-186, limits assumed).
T1 construct: The ELISA antigen is called only 'recombinant human 4-1BB'; also called CD137; TNFSFR
Briefly: ELISA titration on recombinant human 4-1BB. (In an ELISA, binding on a coated surface is turned into a signal by an enzyme label.)
B1: the binding result was “binds”.

With B2, the binding result is given as “binds”.

For B3, the binding result is on record as “binds”.
